Reference: US20180311371A1 (Hoffmann-La Roche, published 2018)
Read-outs that look alike come from different tables or passages of the source.

Legend:
[1] = target: T1, huTPBG (recombinant human TPBG immobilised on the Biacore chip) (human, UniProt Q13641 32-355, limits assumed); assay: SPR Biacore T200; huTPBG amine-coupled, Fab-PE injected; pH 5.5
T1 construct: also called human TPBG antigen
T1 sequence: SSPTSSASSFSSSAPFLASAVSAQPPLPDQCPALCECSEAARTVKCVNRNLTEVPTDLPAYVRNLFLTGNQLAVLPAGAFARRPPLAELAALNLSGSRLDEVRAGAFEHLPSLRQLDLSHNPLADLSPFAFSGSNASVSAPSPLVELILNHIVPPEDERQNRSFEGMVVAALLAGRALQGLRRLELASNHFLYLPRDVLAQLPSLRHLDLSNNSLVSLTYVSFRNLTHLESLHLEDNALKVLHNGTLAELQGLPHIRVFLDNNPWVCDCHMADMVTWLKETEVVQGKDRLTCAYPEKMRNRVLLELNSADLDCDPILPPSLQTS

[2] = target: T2, human TPBG (trophoblast glycoprotein), full length, cell surface expressed (human, UniProt Q13641 32-420); assay: cell-based or functional assay
T2 sequence: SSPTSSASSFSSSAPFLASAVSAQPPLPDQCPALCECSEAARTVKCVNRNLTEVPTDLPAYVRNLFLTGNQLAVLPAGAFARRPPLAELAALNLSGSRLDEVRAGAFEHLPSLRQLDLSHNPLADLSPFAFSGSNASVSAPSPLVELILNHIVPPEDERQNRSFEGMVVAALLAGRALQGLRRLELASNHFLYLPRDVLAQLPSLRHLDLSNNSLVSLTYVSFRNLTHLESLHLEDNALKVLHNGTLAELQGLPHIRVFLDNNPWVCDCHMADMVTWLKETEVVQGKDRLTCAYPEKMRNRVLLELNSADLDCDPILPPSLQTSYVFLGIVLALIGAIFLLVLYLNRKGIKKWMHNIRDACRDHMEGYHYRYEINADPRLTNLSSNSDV

[3] = target: T3, minipig TPBG, full length, cell surface expressed on CHO-K1 cells (minipig); assay: flow cytometry on CHO-K1 stably expressing minipig TPBG; Fab-PE fusion
T3 construct: also called pgTPBG; mpTPBG
T3 chain: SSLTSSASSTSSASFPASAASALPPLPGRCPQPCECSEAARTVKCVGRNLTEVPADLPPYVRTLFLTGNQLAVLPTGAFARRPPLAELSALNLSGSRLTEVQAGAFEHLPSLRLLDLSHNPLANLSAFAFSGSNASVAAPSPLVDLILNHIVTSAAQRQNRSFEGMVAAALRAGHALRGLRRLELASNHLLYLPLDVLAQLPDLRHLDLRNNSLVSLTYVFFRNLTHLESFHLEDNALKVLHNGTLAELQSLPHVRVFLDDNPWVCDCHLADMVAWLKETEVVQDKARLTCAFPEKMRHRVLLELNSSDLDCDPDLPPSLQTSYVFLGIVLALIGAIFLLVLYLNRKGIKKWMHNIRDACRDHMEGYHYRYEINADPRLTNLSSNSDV

[4] = target: T2, human TPBG (trophoblast glycoprotein), …
[5] = target: T1, huTPBG (recombinant human TPBG …); assay: SPR Biacore T200; huTPBG amine-coupled, Fab-PE injected; pH 7.4
[6] = target: T2, human TPBG (trophoblast glycoprotein), …; assay: cell-based or functional assay; remark: listed apart in the source
[7] = target: T2, human TPBG (trophoblast glycoprotein), …; assay: flow cytometry on CHO-K1 stably expressing human TPBG; Fab-PE fusion
[8] = target: T3, minipig TPBG, full length, cell surface …; assay: cell-based or functional assay
[9] = target: T2, human TPBG (trophoblast glycoprotein), …; assay: cell-based or functional assay; remark: listed apart in the source
[10] = target: T2, human TPBG (trophoblast glycoprotein), …; assay: cell-based or functional assay; remark: listed apart in the source
[11] = target: T2, human TPBG (trophoblast glycoprotein), …; assay: cell-based or functional assay; remark: listed apart in the source

B1: anti-TPBG 097 Fab-PE fusion protein (refolded from E. coli inclusion bodies) (Fab)
heavy: MEVQLLESGGGLAQPGGSLRLSCAASGFTFNNDAMTWVRQAPGKGLEWVSAISGSGGSTYYADSVKGRFTISRDNSKNTLYLQMNSLRAEDTAVYYCAKGGSWGDWYYYFYPMDVWGQGTTVTVSSASTKGPSVFPLAPSSKSTSGGTAALGCLVKDYFPEPVTVSWNSGALTSGVHTFPAVLQSSGLYSLSSVVTVPSSSLGTQTYICNVNHKPSNTKVDKKVEPKSCDKTHKASGGRHRQPRGWEQLGGGGGSPTGAEFLGDGGDVSFSTRGTQNWTVERLLQAHAQLEERGYVFVGYHGTFLEAAQSIVFGGVAARSQDLAAIWAGFYIAGDPALAYGYAQDQEPDAAGRIRNGALLRVYVPASSLPGFYRTSLTLAAPEAAGEVERLIGHPLPLALDAITGPEEEGGRLETILGWPLAERTVVIPSAIPTDPRNVGGDLDPSSIPDKEQAISALPDYASQPGKPPREDLK
light: not shown
notes: also called Fab-PE comprising antibody 097
- Kd [1]: 7.49 nM
- koff [1]: 0.00605 s⁻¹
- kon [1]: 808000 M⁻¹ s⁻¹
- EC50 protein synthesis inhibition (luciferase), BxPC-3, replicate 1 [2]: 0.022 nM
- EC50 protein synthesis inhibition (luciferase), BxPC-3, replicate 2 [2]: 0.008 nM
- EC50 [3]: 15.4 nM
- EC50 [4]: 0.64 nM
- Kd [5]: 1.97 nM
- koff [5]: 0.00121 s⁻¹
- kon [5]: 614000 M⁻¹ s⁻¹
- EC50 proliferation, H1975, 10 min exposure [6]: 0.211 nM
- EC50 proliferation, H1975, 30 min exposure [6]: 0.189 nM
- EC50 proliferation, H1975, 60 min exposure [6]: 0.203 nM
- EC50 proliferation, H1975, continuous exposure [6]: 0.013 nM
- EC50 [7]: 5.6 nM
- EC50 cytotoxicity, Fab-PE fusion, stable CHO-K1 pgTPBG [8]: 0.14 nM
- X-fold lower potency pgTPBG versus huTPBG [8]: 3.4 fold
- EC50 cytotoxicity, Fab-PE fusion, stable CHO-K1 huTPBG [9]: 0.04 nM
- EC50 cytotoxicity, Fab-PE fusion, H1975, replicate 1 [10]: 0.013 nM
- EC50 cytotoxicity, Fab-PE fusion, H1975, replicate 2 [10]: 0.013 nM
- X-fold higher potency than Fab-PE fusion protein of H8, H1975, 10 min [11]: 0.9 fold
- X-fold higher potency than Fab-PE fusion protein of H8, H1975, 30 min [11]: 0.9 fold
- X-fold higher potency than Fab-PE fusion protein of H8, H1975, 60 min [11]: 1.1 fold
- X-fold higher potency than Fab-PE fusion protein of H8, H1975, continuous [11]: 1.1 fold

B2: anti-TPBG 091 Fab-PE fusion protein (refolded from E. coli inclusion bodies) (Fab)
heavy: MEVHLLESGGGLVHPGGSLRLSCAASGFTFRSDAMHWVRQAPGKGLEWVSGVSGSGGSPYYADSVKGRFTISRDDSKTTLYLQMNSLRAEDTAVYYCATGGSIAGSYYYYPMDVWGQGTTVTVSSASTKGPSVFPLAPSSKSTSGGTAALGCLVKDYFPEPVTVSWNSGALTSGVHTFPAVLQSSGLYSLSSVVTVPSSSLGTQTYICNVNHKPSNTKVDKKVEPKSCDKTHKASGGRHRQPRGWEQLGGGGGSPTGAEFLGDGGDVSFSTRGTQNWTVERLLQAHAQLEERGYVFVGYHGTFLEAAQSIVFGGVAARSQDLAAIWAGFYIAGDPALAYGYAQDQEPDAAGRIRNGALLRVYVPASSLPGFYRTSLTLAAPEAAGEVERLIGHPLPLALDAITGPEEEGGRLETILGWPLAERTVVIPSAIPTDPRNVGGDLDPSSIPDKEQAISALPDYASQPGKPPREDLK
light: not shown
notes: also called Fab-PE comprising antibody 091
- Kd [1]: 8.89 nM
- koff [1]: 0.00201 s⁻¹
- kon [1]: 226000 M⁻¹ s⁻¹
- EC50 protein synthesis inhibition (luciferase), BxPC-3, replicate 1 [2]: 0.014 nM
- EC50 protein synthesis inhibition (luciferase), BxPC-3, replicate 2 [2]: 0.007 nM
- EC50 [3]: 10.8 nM
- EC50 [4]: 0.89 nM
- Kd [5]: 0.461 nM
- koff [5]: 0.000129 s⁻¹
- kon [5]: 280000 M⁻¹ s⁻¹
- EC50 proliferation, H1975, 10 min exposure [6]: 0.057 nM
- EC50 proliferation, H1975, 30 min exposure [6]: 0.062 nM
- EC50 proliferation, H1975, 60 min exposure [6]: 0.043 nM
- EC50 proliferation, H1975, continuous exposure [6]: 0.003 nM
- EC50 [7]: 8.5 nM
- EC50 cytotoxicity, Fab-PE fusion, stable CHO-K1 pgTPBG [8]: 0.15 nM
- X-fold lower potency pgTPBG versus huTPBG [8]: 3.3 fold
- EC50 cytotoxicity, Fab-PE fusion, stable CHO-K1 huTPBG [9]: 0.05 nM
- EC50 cytotoxicity, Fab-PE fusion, H1975, replicate 1 [10]: 0.005 nM
- EC50 cytotoxicity, Fab-PE fusion, H1975, replicate 2 [10]: 0.003 nM
- X-fold higher potency than Fab-PE fusion protein of H8, H1975, 10 min [11]: 4 fold
- X-fold higher potency than Fab-PE fusion protein of H8, H1975, 30 min [11]: 3.3 fold
- X-fold higher potency than Fab-PE fusion protein of H8, H1975, 60 min [11]: 4.2 fold
- X-fold higher potency than Fab-PE fusion protein of H8, H1975, continuous [11]: 3.7 fold

B3: anti-TPBG 051 Fab-PE fusion protein (refolded from E. coli inclusion bodies) (Fab)
heavy: MEVQLLESGGGLLQPGGSLRLSCAASGFTFSIYWMTWVRQAPGKGLEWVSAISGSGGSTYYADSVKGRFTISRDNSKNTLYLQMNSLRAEDTAVYYCAKDYYSNVYWGQGTLVTVSSASTKGPSVFPLAPSSKSTSGGTAALGCLVKDYFPEPVTVSWNSGALTSGVHTFPAVLQSSGLYSLSSVVTVPSSSLGTQTYICNVNHKPSNTKVDKKVEPKSCDKTHKASGGRHRQPRGWEQLGGGGGSPTGAEFLGDGGDVSFSTRGTQNWTVERLLQAHAQLEERGYVFVGYHGTFLEAAQSIVFGGVAARSQDLAAIWAGFYIAGDPALAYGYAQDQEPDAAGRIRNGALLRVYVPASSLPGFYRTSLTLAAPEAAGEVERLIGHPLPLALDAITGPEEEGGRLETILGWPLAERTVVIPSAIPTDPRNVGGDLDPSSIPDKEQAISALPDYASQPGKPPREDLK
light: MDIQMTQSPSSVSASVGDRVTITCRASQGIYSWLAWYQQKPGKAPKLLIYAASSLQSGVPSRFSGSGSGTDFTLTISSLQPEDFATYYCQQSDSPPYTFGQGTKLEIKRTVAAPSVFIFPPSDEQLKSGTASVVCLLNNFYPREAKVQWKVDNALQSGNSQESVTEQDSKDSTYSLSSTLTLSKADYEKHKVYACEVTHQGLSSPVTKSFNRGEC
notes: also called Fab-PE comprising antibody 051
- Kd [1]: 0.292 nM
- koff [1]: 0.000113 s⁻¹
- kon [1]: 386000 M⁻¹ s⁻¹
- EC50 protein synthesis inhibition (luciferase), BxPC-3, replicate 1 [2]: 0.027 nM
- EC50 protein synthesis inhibition (luciferase), BxPC-3, replicate 2 [2]: 0.015 nM
- EC50 [3]: 16.9 nM
- EC50 [4]: 1.25 nM
- Kd [5]: 0.121 nM
- koff [5]: 3.46e-05 s⁻¹
- kon [5]: 286000 M⁻¹ s⁻¹
- EC50 proliferation, H1975, 10 min exposure [6]: 0.241 nM
- EC50 proliferation, H1975, 30 min exposure [6]: 0.204 nM
- EC50 proliferation, H1975, 60 min exposure [6]: 0.18 nM
- EC50 proliferation, H1975, continuous exposure [6]: 0.014 nM
- EC50 [7]: 12.4 nM
- EC50 cytotoxicity, Fab-PE fusion, stable CHO-K1 pgTPBG [8]: 1.37 nM
- X-fold lower potency pgTPBG versus huTPBG [8]: 51.7 fold
- EC50 cytotoxicity, Fab-PE fusion, stable CHO-K1 huTPBG [9]: 0.03 nM
- EC50 cytotoxicity, Fab-PE fusion, H1975, replicate 1 [10]: 0.016 nM
- EC50 cytotoxicity, Fab-PE fusion, H1975, replicate 2 [10]: 0.014 nM
- X-fold higher potency than Fab-PE fusion protein of H8, H1975, 10 min [11]: 1.1 fold
- X-fold higher potency than Fab-PE fusion protein of H8, H1975, 30 min [11]: 1 fold
- X-fold higher potency than Fab-PE fusion protein of H8, H1975, 60 min [11]: 1 fold
- X-fold higher potency than Fab-PE fusion protein of H8, H1975, continuous [11]: 1.1 fold
